In paper PMC10079538, “Unusual PDGFRB fusion reveals novel mechanism of kinase activation in Ph-like B-ALL” (Leukemia, 2023):

Target: the molecule itself
Experiment: SEC; elution of the recombinant protein purified from insect cells; molecular weight from the elution

B1: recombinant truncated PDGFRB (PDGFRB^584-1106) (domain or fragment, human, UniProt P09619 584-1106, looked up)
chain: PMQLPYDSTWELPRDQLVLGRTLGSGAFGQVVEATAHGLSHSQATMKVAVKMLKSTARSSEKQALMSELKIMSHLGPHLNVVNLLGACTKGGPIYIITEYCRYGDLVDYLHRNKHTFLQHHSDKRRPPSAELYSNALPVGLPLPSHVSLTGESDGGYMDMSKDESVDYVPMLDMKGDVKYADIESSNYMAPYDNYVPSAPERTCRATLINESPVLSYMDLVGFSYQVANGMEFLASKNCVHRDLAARNVLICEGKLVKICDFGLARDIMRDSNYISKGSTFLPLKWMAPESIFNSLYTTLSDVWSFGILLWEIFTLGGTPYPELPMNEQFYNAIKRGYRMAQPAHASDEIYEIMQKCWEEKFEIRPPFSQLVLLLERLLGEGYKKKYQQVDEEFLRSDHPAILRSQARLPGFHGLRSPLDTSSVLYTAVQPNEGDNDYIIPLPDPKPEVADEGPLEGSPSLASSTLNEVNTSSTISCDSPLEPQDEPEPEPQLELQVEPEPELEQLPDSGCPAPRAEAEDSFL
notes: PDGFRB, human, residues 584-1106; truncated form encoded by the CD74^intr::PDGFRB fusion, lacks the juxtamembrane region; methods are in the supplementary file; also called truncated PDGFRB^584-1106; source: insect cells, expressed and purified
- stoichiometry N: 2
